Experiment: label from the status in PepcDB records
With “MQQLSFLPGEMTPGERSLILRALQTLDRHXHEPGVAFTSTRAAREWLILNMAGLEREEFRVLYLNNQNQLIAGETXFTGTINRTEVHPREVIKRALYHNAAAVVLAHNHPSGEVTPSKADRLITERLVQALGLVDIRVPDHLIVGGNQVFSFAEHGLL” the protein production was “failed”. With “MQQRRPVRRALLSVSDKAGIVEFAQALSARGVELLSTGGTARLLAEKGLPVTEVSDYTGFPEMMDGRVKTLHPKVHGGILGRRGQDDAIMEEHQIQPIDMVVVNLYPFAQTVAREGCSLEDAVENIDIGGPTMVRSAAKNHKDVAIVVKSSDYDAIIKEMDDNEGSLTLATRFDLAIKAFEHTAAYDSMIANYFGSMVPAYHGESKEAAGRFPRTLNLNFIKKLDMRYGENSHQQAAFYIEENVKEASVATATQVQGKALSYNNIADTDAALECVKEFAEPACVIVKHANPCGVAIGNSILDAYDRAYKTDPTSAFGGIIAFNRELDAETAQAIISRQFVEVIIAPSASEEALKITAAKQNVRVLTCGQWGERVPGLDFKRVNGGLLVQDRDLGMVGAEELRVVTKRQPSEQELRDALFCWKVAKFVKSNAIVYAKNNMTIGIGAGQMSRVYSAKIAGIKAADEGLEVKGSSMASDAFFPFRDGIDAAAAAGVTCVIQPGGSIRDDEVIAAADEHGIAMLFTDMRHFRH” the protein production was “not failed”. In the case of “MQQVFNVSVPVPDDVVIISKEEYLNLLSDNEQGKWWDIDNLQELLGIGRSKLINDILLNPDIKKEVDLSINPNGFIVYPKGKGSRYKILATKARKYFEDNFGSILLNS”, the protein production is reported as “failed”. With “MQREKTQTNLRLDEGGGSVWQKCSRHEGRFVCVAGVCPYCLHERLSSLCPDCAHDLPCSCTPRASVSSRGEGDVSFARIGSVGRVANLIECEPAFRRSTSITGPYFWSAKPEPILETEKDLKPGRGRWLWRLFRGNREEETKIKAAKVMKKSNSVAGEVLFSPTPVTSKGNGWYFPSPIKVFRQSRVSKMIFQQRSPLYRG” the protein production was “failed”. In the case of “MQRGDISMTKRKDIHFRIEEKLLERFESALHYEGLKKTDVLTHAIQQFCMKVEYEKMNDVKRQYSVSNNLQTRIDTHKHYEEKQVNLDEIVIEHLQLQGRERILEVGCANGKFLSLLQANGHKGQLTGFDQSEAMLSEATKTNNLIEWRLGDAGKLPFEANYYDLIVARHMLYHMKDVEKTIQGFHKVIHPGGSLLATTNSNVTLPRIVEMCNRMLDTFDLPKTTSSVTPFCLENGKEILQSVFPTVEVSVIHNALVFHHATPIVNYISSMFPSLNIPDNTLLHAEMKDWLKEEVENELLLHNGIWRDPKTLAIYRCQKEKS”, the protein production is reported as “failed”. In the case of “MQRKGDTPATLDLFADQTPQPRRDEQIGPGSWLFSGFALPAMPTLLLALEQTLGHSPFRHMLTPGGLSMSAALSSCGPLGWITDRHGYRYSDVDPQTGQPWPAMPDAFMQLAQSAALAAGYRGFVPDACLINRYIPGAKMSLHQDKDEHDHRWPVVSVSLGIPAIFQFGGMQRSDKTRRISLFHGDVVVWGGEDRLRFHGILPIKQAEHPLLGEQRINLTFRKAGRDSLEHHHHHH”, the protein production is reported as “not failed”. For “MQRLEVREPVPYPILVGEGVLKEVPPLAGPAALLFDRRVEGFAQEVAKALGVRHLLGLPGGEAAKSLEVYGKVLSWLAEKGLPRNATLLVVGGGTLTDLGGFVAATYLRGVAYLAFPTTTLAIVDASVGGKTGINLPEGKNLVGAFHFPQGVYAELRALKTLPLPTFKEGLVEAFKHGLIAGDEALLKVEDLTPQSPRLEAFLARAVAVKVRVTEEDPLEKGKRRLLNLGHTLGHALEAQTRHALPHGMAVAYGLLYAALLGRALGGEDLLPPVRRLLLWLSPPPLPPLAFEDLLPYLLRDKKKVSESLHWVVPLAPGRLVVRPLPEGLLREAFAAWREELKGLGLLR”, the protein production was “not failed”. In the case of “MQRLNLGCGQYPKAGFLNVDVDPLAKADVFHDLSSFPYPFEDARFDLVEMDHVLEHLPSPRDAMREIWRILKPGGTLRLRVPHFSRGFSHYDHKCGFDVTFPLYFDPTFPGGYTGIPFEHVQTRLVWFAQPWLKRQVLGNFAFNVGKMLGMVFDALGNIAPLATSRLFCFWVGGYEEITFELRRPTNTLEHHHHHH”, the protein production is reported as “not failed”. With “MQRLQASLERRQVGIYFAAMALGAVLAWHRPGLQVGEATLNLMLAGMLLATFMQVPLAGWRATLPGMRFLGVLLSVNFVLVPALVWGLAALLPADPMIRLAVLLVLLAPCIDYVVTFAQLGRADARALLAATPVLLCGQMLLLPLYLNVMLGSDAAALIRPGPFVQAFVWLIALPLAAATGVQWAAARSAAWRGAASVVGLLPVPATALVLATIVAAVAPRMALAGEAVSRVVPVYLLFAVIAPAAGWLAARRARLAAPQARAVAFSAGTRNSLVVLPLALAVPGGVPLLPALIVAQTLVELCAELLYVRVFGRAGKDRAGEG” the protein production was “failed”. With “MQRTAVLPYVQLLKPITWFAPMWAFGCGLISSGLPVWDRWPVIALGVLLCGPLVCGTSQAVNDWFDRHVDAINEPDRPIPSGRIPGRVGLYIAIGWTVLSLAVAWVLGPWVFGAAIFGLALAWAYSAPPFRLKGNGWWGNSAVGLCYEGLPWFTGAAVIAGALPDTRIVLLAVLYSIGAHGIMTLNDFKAVEGDIRMGVRSLPVQLGVAPAARLACAVMAVPQMVVIGLVASWDRPYHAGAVGLLLLAQFVLMARLLKRPRELAPWYNATGTTLYVIGMMVSAFALAPLIGAVELAPLIGAAP” the protein production was “failed”. For “MQSDKVLNLPAGYFGIVLGTIGMGFAWRYASQVWQVSHWLGDGLVILAMIIWGLLTSAFIARLIRFPHSVLAEVRHPVLSSFVSLFPATTMLVAIGFVPWFRPLAVCLFSFGVVVQLAYAAWQTAGLWRGSHPEEATTPGLYLPTVANNFISAMACGALGYTDAGLVFLGAGVFSWLSLEPVILQRLRSSGELPTALRTSLGIQLAPALVACSAWLSVNGGEGDTLAKMLFGYGLLQLLFMLRLMPWYLSQPFNASFWSFSFGVSALATTGLHLGSGSDNGFFHTLAVPLFIFTNFIIAILLIRTFALLMQGKLLVRTERAVLMKAEDKE”, the protein production was “not failed”. With “MQSGDGRRGRLRIFFGFAAGVGKTYGMLTEAHELLMMGKHVVVGYIEPHDRPDTNRLLEGLPQIPPKNIFYKQMVLTEPDIDQIIQQKPEIVLIDELAHSNAEGSRNRKRYQDIDELLNAGIDVFTTVNVQHIESLNDIVEEVTGIEVKETVPDTFLRQATIRVIDVEPDELIERLEQGKIYANENAKRALKNFFIPQKLDQLRGLAIQRASDHINRISGKTIGIQSKLLTVVNDAFPKMTEKCIRWTARLAQGLVVDWTVIQVRTQENTPTNIPLADKLGAEVISIEEDDSFETIVEFAKMTGVTDIIMGKNLRQPWYEKIFIEAFDDRLLKRLKDTELHLIPFNEEKRSLFFKTRKVIEGGGKDLVIAIGGVFLATVVTELMQYIHVGDQNLMLIYISFVLLVARTTSGYFWSSLSSILSVLSFNWFFVEPLYSLTVYKQGYPFTLLLMLVVALMSSNLMIRLKKQADTSMKKEHQMEILYELNKRYVLVESRKQILDISATYLSRLLEREVIIFDRQVKTESVHCINEKKSILNNEDEAAVAFWAAKNQKEAGNGTDTLNGAKGFYLPIAAGRKTLAVLGIERNADLDLENDQLNYLKLVLTQIAVILEQTELKDEKEQVELENEREKVRSNLLRAVSHDLRTPLTVISGIAETLGIGNDLKEETQRKLLKDIQEESQWLIRMVENLLSITRINMDTMKVNKTAEPVEEVIEAVYKHLRKVYPDGQVDIHLPEEVIFIQADPILIEQALFNLIENAFRHGENDLPVKLNVYQEKEQTVFEIENHGEIPLKQFQKIQSNLSGTNEVPVDSKNGLGIGLSIVKTIVHAHNGKMEMTIGRGKTLVRIYLK” the protein production was “failed”. With “MQSKGATGSKSEQRTGLLNGVAAYGMWGLVPLYWPLLKPAGAVEILAHRMVWSLALVAVALLVMRRWAWAGELLRQPRKLALVTVAAAVITVNWGVYIWAVNAGHVVEASLGYFINPLVTIALGVLILKERMRPWQWAAVGVAFTAVVVLTVGYGQPPWISLCLAFSFGTYGLVKKKVNLGGIESLAAETAIQFLPALAYLLWLTASGGSTFGTQGGAGHAALLASTGVVTAIPLVCFGAAAIRVPLSTLGLLQYLAPVFQFLLGILYFHEAMPPERWAGFALVWLALSLLTWDALRAAHRASRALRTAPSRIVADEQITPVYEHP” the protein production was “failed”. With “MQSSSSLAPVAPIIFLAIAIAAINWIDLARGKNRTSVAYPLSLLTTLVLTAWFGIDAAGGETHYAFANLVVIDPMANVLAAFCSLGMLLTLIYTRSYLAERDMFAGEFYMLALFTLGGQIVMITGNNFLTLYLGLELLSLSSYALVALRRDSRVTSESAIKYFVLGALASGFLLYGMSMMYGATGSLNLGEVFRVVESGRVNTTMLAFGVVFIVAGVAFKLGAAPFHMWIPDIYQGSPTAVTLLIAAGPKVAAFALIIRLLVEGLLPLATDWQVMLVILSIASLVIGNLTAIVQTNLKRMLAYSTISHMGFVLLGMLSGVVANKADGAVNAYSSSMFYSITYMLTTLGTFGLILVRTRKGFEAETLDDLKGMSRRHPWFAFLMLVMMFSMAGIPPTVGFYAKLSVLQAVVSAGMSWLAVLAVVFSLIGAFYYLRIVKLMYFDAPVGEEPLEASTGLRSVLSLNGLAVILLGLFPAGLMDLCFQAIRATLAS” the protein production was “failed”. In the case of “MQSTAFSLYIIDTLHDSLIFATILMSALLPKIILGPLGGVFVDWFDRKKFLVVIDLISGVLLLISALVYGNNLSLPIIYFICISLGIMNSVDEPLVVALIPSLVEKEKLVTANSINMFSTALGNIIGPILGAVVYSSFGIDTILYINASSFIIGAILEFMINIENKKKISQSKTIFNFLEDFKAGLIYIVRNRIILVIVVSIFFQNFFFNGATTVGVPFLAKQILKVSNAEFAILETTLIVGSIFGLLVASNLIKDKPLASLFPKLLFVISVCFLMIGLICIFLLKKQLMAYVFIAIIYICLGMLSMNVNVLFQTEMQKIVDESMFGRVSSLILSLIMSSIPLGQLVYGYLFKVVSPSIPFLVTFIAICCVSTLFSLSLRNSEL”, the protein production is reported as “failed”. For “MQSTIVIVNLLGAVALLLFGLAQVKDGVTRAFGMKLRSVLATGTQNGPRSFFSGFFATVALQSSTATALTVASFAERDLIKPRMAQVVLLGANVGTAVTAWIVAAGVEWLSPLLILAGIILKKGSSNARQGGGTAVIGIGLMLLSLHLLSGATEPMRASPALGVFIGLLDGAWPVALIFSAVLAFVSSSSLAVVVLILSLTATGTLSTGLIIVLILGANLGGAIPPVIATLSGPASARRITIGNLVVRTIGCLIAMPLASYGATYLQQLPLSPAKLPVDAHLIFNLILATLAWPFSGLISDLMAKLVPGDPKAEDGPNFLDQQALDVPVVALANATREVLSVGDSIERMLIRAENAFKHNDLAPLQEVALLEKKVDRRQQEVKVYLSQLGRKGLTDEEARRSIAIIDYAINLEHIGDIIEKGICEQIRKKVLNSFKFSDDGYEELKTLFDMTIENLRAAQSILVTGDFELARRLMESKVDIRRLEKQSSNRHLERLRDGLAESMQTSSLHLDMLRDLKRINAHIVTVAHPILDESGVLIESRLRYAEPRA”, the protein production was “failed”. For “MQTASRAHADSRHGLFLILFSAMLWGTVGITTKALYGLADTTPLSIGFFRLALAVPVLVAACRLATGPAMFRVARRDLGTMIVVGAMTALYQVCYFAAIRQIGVAAATLVTLCTAPVIVALLSAILTGERPSGRVLLSLACALAGTALLVGLRPLAGEGGNIPLGIAQALGSAFSYASVTVASRTLAGRYHPLQPVAIGFAAGALFLLPTALADGLVLTYPAAGWVLLLYLGVVPTALAYALFLAGMRTTTATAASICTLLEPLVSTVLAWLIFGERLGPLGAVGAVLLFGAIGLLARPVRRRQSSAA”, the protein production was “failed”. For “MQTFVLATNSETVSQTLCSYLEGVLDLEDSVYAVNSQPGGDRTPPDAVADGKAALEVVSDRLGDQVSVETYQIIRGNSPADDIFDIAAEVDADELVIGVRKRSQTDRLIFGSVAQDIMRQSDYPMRVVPRD”, the protein production was “failed”. In the case of “MQTIIRVEKLAKTFNQHQALHAVDLNIHHGEMVALLGPSGSGKSTLLRHLSGLITGDKSVGSHIELLGRTVQREGRLARDIRKSRAHTGYIFQQFNLVNRLSVLENVLIGALGSTPFWRTCFSWFTGEQKQRALQALTRVGMVHFAHQRVSTLSGGQQQRVAIARALMQQAKVILADEPIASLDPESARIVMDTLRDINQNDGITVVVTLHQVDYALRYCERIVALRQGHVFYDGSSQQFDNERFDHLYRSINRVEENAKAA”, the protein production is reported as “failed”.

Source: a protein production outcome set (Wang et al. 2014)
